Reference: patent US20190328677A1

Legend:
[1] = target: Fn14 extracellular domain (recombinant, Cell Sciences); assay: SPR (Biacore), Fn14 extracellular domain on chip, binding isotherm of RUeq, per nanoparticle
[2] = target: human Fn14 on cells (MEF Fn14-V5, U87-Luc/GFP, 231-Luc) (human); assay: flow cytometry, human U87-Luc/GFP GBM cells
[3] = target: Fn14 extracellular domain (recombinant, Cell Sciences); assay: SPR (Biacore), ratio of KD against free ITEM4
[4] = target: human Fn14 on cells (MEF Fn14-V5, U87-Luc/GFP, 231-Luc) (human); assay: flow cytometry, MEF Fn14-V5 cells expressing human Fn14
[5] = target: Fn14 extracellular domain (recombinant, Cell Sciences); assay: SPR (Biacore 3000), Fn14 extracellular domain on CM5 chip, equilibrium fit, per nanoparticle
[6] = target: Fn14 extracellular domain (recombinant, Cell Sciences); assay: SPR (Biacore 3000), Fn14 extracellular domain on CM5 chip, equilibrium fit
[7] = target: human Fn14 on cells (MEF Fn14-V5, U87-Luc/GFP, 231-Luc) (human); assay: human U87 glioma cells treated with fluorescent particles (FIG. 3C; legend says flow cytometry)
[8] = target: human Fn14 on cells (MEF Fn14-V5, U87-Luc/GFP, 231-Luc) (human); assay: cell-based or functional assay
[9] = target: human Fn14 on cells (MEF Fn14-V5, U87-Luc/GFP, 231-Luc) (human); assay: flow cytometry, 231-Luc cells
[10] = target: Fn14 extracellular domain (recombinant, Cell Sciences); assay: SPR (Biacore), Fn14 chip, nanoparticles first incubated with mouse blood serum

Substance: PLGA-PEG10%-ITEM410% nanoparticles
- Kd [1]: 2.6 nM

Substance: CNP-ITEM4 (high): 100 nm PEG-coated polystyrene nanoparticles decorated with a high density of ITEM4
- fold cellular uptake efficiency against CNP alone [2]: 3.5 fold
- fold higher binding affinity than ITEM4 alone [3]: 65 fold
- fold cellular uptake against CNP [4]: 2.5 fold
- Kd [5]: 0.024 nM

Substance: PLGA-PEG1%-ITEM41% nanoparticles
- Kd [1]: 3.2 nM

Substance: CNP-ITEM4 (low): 100 nm PEG-coated polystyrene nanoparticles decorated with a low density of ITEM4
- fold cellular uptake efficiency against CNP alone [2]: 1.25 fold
- fold higher binding affinity than ITEM4 alone [3]: 15 fold
- Kd [5]: 0.106 nM

Substance: thiol-modified ITEM4 (ITEM4-SH) (antibody)
- Kd [6]: 1.57 nM

Substance: PLGA-PEG5%-ITEM41% nanoparticles
- Kd [1]: 2.4 nM

Substance: BPN conjugated with ITEM4 at high density
- fold increase in binding to glioma cells against non-targeted BPN [7]: 4.5 fold

Substance: PLGA-PEG10%-ITEM40.1% nanoparticles
- Kd [1]: 26.5 nM

Substance: PLGA-PEG10%-ITEM41% nanoparticles (optimized DART nanoparticles)
- IC50 (as paclitaxel), viability of 231-Luc cells by MTS assay, 2 h exposure then 24 h in fresh medium (in vitro clearance study), paclitaxel-loaded particles [8]: 130 nM
- fold cellular association efficiency against PLGA-PEG [9]: 2.5 fold
- Kd [10]: 6.1 nM
- Kd [1]: 1.9 nM

Substance: ITEM4 monoclonal antibody (Fn14-specific monoclonal antibody)
- Kd [6]: 1.62 nM
